PMC6453957, “Specific inhibition of splicing factor activity by decoy RNA oligonucleotides”

Molecular target: T1, RBFOX1 RRM (UniProt Q9NWB1 109-208)
T1 sequence: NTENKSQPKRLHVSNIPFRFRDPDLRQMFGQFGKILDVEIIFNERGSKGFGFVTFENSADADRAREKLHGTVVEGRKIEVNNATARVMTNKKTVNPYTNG
Assay: NMR 1H-15N HSQC titration; 313 K; very large perturbations; switchSENSE titration: T100 (10 mM Tris-HCl pH 7.4, 100 mM NaCl, 0.05% Tween20), 37 C; sizing: T40 (same with 40 mM NaCl), 37 C; NMR: NMR buffer (RNA in T40), 313 K
Conditions: protein: recombinant; tags: N-terminal 6xHis; single strand

UGCAUGU (ssRNA) [RBFOXi NMR RNA]
binding result: binds
